Results reported in patent US12043671B2, “Antibodies targeting an amphiregulin-derived cell surface neo-epitope” (Gundersen Lutheran Medical Foundation, Inc., priority 2021, dated 2024).

Legend:
[1] = test system: MCF-7 cells; assay: Tubulin staining (microtubule integrity); format: cell-based, human; settings: 48 h treatment
Method: FIGS. 4A-4E. In vitro 1A3-MMAE cytotoxicity in MCF-7 (FIG. 4A) and MCF-7F (FIG. 4B) cells measured by MTT assay after treatment with 1A3-MMAE, 1A3 or MMAE. FIG. 4C: Clonogenic growth of MCF-7 or MCF-7F cells after exposure to 1A3-MMAE and replating. FIG. 4D: The quantification of clonogenic growth assays in FIG. 4C. (FIG. 4E). Tubulin staining of MCF-7 cells after 48 h treatment with MMAE, 1A3, 1A3-MMAE (40× magnification).

[2] = biological target: T1, cleaved AREG (Homo sapiens, UniProt P15514); assay: Immunohistochemistry on breast tumor tissue micro-array; settings: for proportion of tumors exhibiting medium/high intensity staining: 10 μg/mL
T1 construct: tissue US Biomax Inc; host or cells: breast disease spectrum tissue micro-array (formalin-fixed, paraffin-embedded)
T1 sequence (P15514 188-252): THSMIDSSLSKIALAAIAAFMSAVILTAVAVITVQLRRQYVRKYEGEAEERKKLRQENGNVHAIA
Method: A breast disease spectrum tissue micro-array was purchased from US Biomax Inc. (Derwood, MD, USA). The slides were deparaffinized in xylene and rehydrated by serial incubations in graded ethanol and then in water in a Histo-Tek® SL Slide Stainer (Sakura Finetek USA, Inc., Torrance, CA, USA). Antigen retrieval was performed in a steamer by boiling slides in a container of citrate buffer (pH 6.0) for 20 min, which was then removed for 15 min of cooling on the benchtop. Slides were washed in 1×Wash buffer (Dako Agilent, Santa Clara, CA, USA) and endogenous peroxidase was quenched by incubating with Dako Dual Endogenous Enzyme Block (S2003) for 10 min. Slides were washed in 1× Wash buffer, blocked (5% rabbit/10% goat serum in PBS), and immunostained with goat anti-AREG antibody (15 μg/mL; AF262, R&D Systems) or rabbit anti-cleaved AREG 1A3 antibody (10 μg/mL) overnight at 4° C. Slides were washed four times in 1× Wash buffer, followed by the incubation for 45 min at room temperature in 1:100 dilution of rabbit anti-goat immunoglobulins/HRP (Dako, P0160 or ready-to-use goat anti-rabbit HRP labeled polymer (Dako, K4003). The slides were washed twice in 1× Wash buffer and the color was developed with 3,3-diaminobenzidine tetrahydrochloride substrate chromogen system (K3468, DAKO, Santa Clara, CA, USA). Sections were washed with water and counterstained with hematoxylin, rinsed with water, dehydrated by serial ethanol washes to 100%, cleared and mounted in Permount (Thermo Fisher Scientific). The staining intensity was assessed semi-quantitatively using a four-point scale (negligible=0, low=1, medium=2, high=3) by two investigators working independently on blinded samples. Discordant scores were resolved by joint review.

[3] = biological target: T2, cleaved-AREG peptide (Homo sapiens, UniProt P15514); assay: ELISA binding of 1A3 and 1A3-VC-PAB-MMAE to cleaved-AREG peptide; settings: 0.001-1 μg/mL
T2 construct: host or cells: synthetic peptide
Method: Maxisorp flat bottom 96-well plates (Thermo Fisher Scientific) were coated with 5 μg/mL cleaved-AREG peptide at 4° C. overnight. After washing thrice with PBST (PBS with 0.05% Tween20) and blocking for 2 h at RT with 5% non-fat dry milk in PBST, various concentrations of 1A3 and 1A3-VC-PAB-MMAE (0.001, 0.01, 0.1, 1 μg/mL) were added to the wells and incubated for 2 h at RT. The wells were washed four times with PBST and were incubated at RT with Goat anti-rabbit IgG (H+L) Cross-adsorbed-HRP conjugate secondary Ab (ThermoFisher G-21234) for 1 h. One-Step™ Turbo™ B-ELISA Substrate Solution (Thermo Fisher Scientific) was added to the wells for color development, incubated for 15 min and the reaction was stopped by adding 2 M H2SO4.

[4] = biological target: T3, cleaved Amphiregulin (Homo sapiens, UniProt P15514); assay: Immunohistochemistry on multiple organ carcinoma tissue microarrays
T3 construct: tissue BioCoreUSA; host or cells: multiple organ carcinoma tissue microarrays (ten tumour types)
T3 sequence (P15514 188-252): T1 sequence (P15514 188-252)
Method: Two multiple organ carcinoma tissue microarrays were purchased from BioCoreUSA (Philadelphia, PA, USA). The slides were deparaffinized in xylene and rehydrated by serial incubations in graded ethanol and then in water in a Histo-Tek® SL Slide Stainer (Sakura Finetek USA, Inc., Torrance, CA, USA). Antigen retrieval was performed in a steamer by boiling slides in a container of citrate buffer (pH 6.0) for 20 min which was then removed for 15 minutes of cooling on the benchtop. Slides were washed in 1× Wash buffer (Dako Agilent, Santa Clara, CA, USA) and endogenous peroxidase was quenched by incubating with Dako Dual Endogenous Enzyme Block for 10 minutes. Slides were washed in 1× Wash buffer, blocked (5% rabbit/10% goat serum in PBS), and immunostained with goat anti-AREG antibody (15 μg/mL; AF262, R&D Systems) or rabbit anti-cleaved AREG 1A3 antibody (10 μg/mL) overnight at 4° C. Slides were washed four times in 1× Wash buffer, followed by incubation for 45 minutes at room temperature in 1:100 dilution of rabbit anti-goat immunoglobulins/HRP or ready-to-use goat antirabbit HRP labelled polymer (Dako). […] The staining intensity was assessed semi-quantitatively using a four-point scale (Negative=0, Low=1, Medium=2, High=3) by two investigators working independently on blinded samples. […]

[5] = test system: MCF7 cells; assay: Internalization and intracellular localization of 1A3-pHrodo, live-cell imaging; format: cell-based, human; settings: time course to 2.5 h
Method: In order to study internalization, 1A3 was conjugated with pHrodo iFL Red dye using pHrodo iFL Red Microscale Protein Labeling Kit (P36014, Thermo Fisher Scientific). MCF7 cells were seeded in 12 mm Nunc Glass Bottom Dish, at a density of 1 ×10^5 cells/dish. After allowing the cells to attach overnight, the cells were incubated for 60 min with […] Hoechst dye for nuclei staining and LysoTracker® Green DND-26 (Thermo Fisher Scientific) for lysosomal labeling. The cells were then incubated with 1A3-pHrodo (2 μg/mL) for 20 min at 37° C. After washing the wells with PBS, the cells were supplemented with 1× live-cell imaging solution (Molecular probes, Thermo Fisher Scientific). Fluorescence images were acquired at 30 min intervals for 2.5 h with the Olympus 1×71 inverted fluorescence microscope (Olympus, Shinjuku, Tokyo, Japan). TAPI-2 (20 μM)—pre-treatment was performed overnight, with DMSO serving as a control.

B1: 1A3: Rabbit monoclonal IgG specific to cleaved AREG; VH SEQ ID NO: 3, VL SEQ ID NO: 4 (antibody, V domains shown)
VH: QSVKESEGRLVTPGTPLRLTCTVAGYSLSRYHMCWVRQAPGKGLEWIGMIGGSGRTDYASWAKGRFTISKTSTTVDLKITSPTTEDTATYFCSTVYTDSDGDFWGPGTLVTVSS
VL: AELDMTQTPSSKSVPVGGTVTINCQASESVYSNDRLAWFQQKPGQPPKLLIYYASTLASGVPSRFKGSGSGTQFTLTISDLECADAATYYCQSCYDMSSYGVAFGGGTELEIL
modifications: 1A3 antibody, Heavy chain; 1A3 antibody, Light chain
tubulin disruption (microtubule integrity) [1]: did not
cases with medium/high immunoreactivity ([2]; 138 breast cancer specimens): 70%
proportion of tumors exhibiting medium/high intensity staining ([2]; ER-negative tumors (n=50)): 70%
proportion of tumors exhibiting medium/high intensity staining ([2]; ER-positive tumors (n=88)): 69.3%
binding to cleaved AREG peptide, unconjugated vs MMAE-conjugated [3]: no substantial difference in binding
neoplastic cells negative for immunostaining ([4]; 370 evaluable cores, ten tumor types): No neoplastic cells were negative
tumors stained in the highest score for cleaved Amphiregulin ([4]; breast, prostate, liver and lung tumors): At least 50%
trafficking after internalization (colocalization of pHrodo and Lysotracker signals) [5]: trafficked to the lysosome after internalization
